In publication PMC12846780:

Target: IL7R (human (endogenous in PBMC T cells, SiHa, Daudi)) (UniProt P16871)
Sequence of UniProt P16871 (P16871 21-459): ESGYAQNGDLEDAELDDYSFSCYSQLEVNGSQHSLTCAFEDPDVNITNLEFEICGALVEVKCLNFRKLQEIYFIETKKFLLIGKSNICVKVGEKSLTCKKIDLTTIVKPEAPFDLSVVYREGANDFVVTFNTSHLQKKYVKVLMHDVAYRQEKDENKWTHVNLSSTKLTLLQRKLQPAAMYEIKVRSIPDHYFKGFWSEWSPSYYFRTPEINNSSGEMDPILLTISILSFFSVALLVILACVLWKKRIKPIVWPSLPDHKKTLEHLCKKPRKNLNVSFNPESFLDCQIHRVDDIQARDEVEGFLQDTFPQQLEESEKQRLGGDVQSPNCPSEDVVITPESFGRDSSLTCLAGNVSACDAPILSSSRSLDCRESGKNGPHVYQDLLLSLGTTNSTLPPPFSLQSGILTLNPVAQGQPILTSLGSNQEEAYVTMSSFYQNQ

percent of T cells in PBMCs positive for VEGF-647 after 24 h with 10 nM kineTAC and 25 nM VEGF-647 (four donors): 85.4%
Substance: IL7-Bevacizumab kineTAC (from UniProt P13232 26-177) (bispecific antibody)
